Assay results: article PMC8657904

What was measured:
[1] = biological target: CmbHLH2 from chrysanthemum 'Jimba', GAL4 DNA-binding domain fusion (Chrysanthemum x morifolium 'Jimba')
[2] = biological target: CmbHLH2.1 (alternative splicing variant of CmbHLH2) from chrysanthemum 'Jimba', GAL4 DNA-binding domain fusion (Chrysanthemum x morifolium 'Jimba')
Chain of CmbHLH2.1 (alternative splicing variant of CmbHLH2) from chrysanthemum 'Jimba', GAL4 DNA-binding domain fusion (Chrysanthemum x morifolium 'Jimba') (main, as listed by the source mutant): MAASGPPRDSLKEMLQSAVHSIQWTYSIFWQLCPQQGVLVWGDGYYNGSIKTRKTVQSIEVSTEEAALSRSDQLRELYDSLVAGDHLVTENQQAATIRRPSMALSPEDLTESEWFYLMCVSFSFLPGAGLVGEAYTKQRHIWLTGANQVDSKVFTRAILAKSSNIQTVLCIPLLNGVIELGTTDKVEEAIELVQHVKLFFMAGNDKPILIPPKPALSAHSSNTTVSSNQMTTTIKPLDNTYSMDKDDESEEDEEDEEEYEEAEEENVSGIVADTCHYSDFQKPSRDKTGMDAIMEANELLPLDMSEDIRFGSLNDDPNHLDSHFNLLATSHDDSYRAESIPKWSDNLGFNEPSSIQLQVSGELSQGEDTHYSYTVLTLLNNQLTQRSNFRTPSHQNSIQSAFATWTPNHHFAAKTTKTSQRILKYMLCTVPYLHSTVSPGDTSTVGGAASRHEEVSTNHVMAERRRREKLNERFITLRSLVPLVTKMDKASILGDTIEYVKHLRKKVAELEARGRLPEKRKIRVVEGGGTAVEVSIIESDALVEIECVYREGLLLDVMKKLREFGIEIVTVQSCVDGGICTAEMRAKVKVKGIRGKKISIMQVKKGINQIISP

Chain of CmbHLH2 from chrysanthemum 'Jimba', GAL4 DNA-binding domain fusion (Chrysanthemum x morifolium 'Jimba') (main, as listed by the source): as the sequence (main, as listed by the source mutant) above

- dual-luciferase assay in Nicotiana benthamiana leaves: fold-induced activation of the CmDFR promoter by CmMYB6 together with CmbHLH2, compared to empty vector [1]: > 40 times
- dual-luciferase assay in Nicotiana benthamiana leaves: fold-induced activation of the CmDFR promoter by CmMYB6 together with CmbHLH2.1, compared to empty vector [2]: > 10 times
Substance: CmMYB6 (transcript20734) from chrysanthemum 'Jimba', GAL4 activation domain fusion (natural protein)
